Assay results published in US10174359.

Tests used:
cyclin B1-cdk1 complex = cyclin B1-cdk1 complex (UniProt P14635)
[1] = test system: separase sensor, wild-type Scc1 (142-467), histone H2B localization-targeting sequence

Chain of cyclin B1-cdk1 complex (P14635 whole entry, looked up, one chain of several): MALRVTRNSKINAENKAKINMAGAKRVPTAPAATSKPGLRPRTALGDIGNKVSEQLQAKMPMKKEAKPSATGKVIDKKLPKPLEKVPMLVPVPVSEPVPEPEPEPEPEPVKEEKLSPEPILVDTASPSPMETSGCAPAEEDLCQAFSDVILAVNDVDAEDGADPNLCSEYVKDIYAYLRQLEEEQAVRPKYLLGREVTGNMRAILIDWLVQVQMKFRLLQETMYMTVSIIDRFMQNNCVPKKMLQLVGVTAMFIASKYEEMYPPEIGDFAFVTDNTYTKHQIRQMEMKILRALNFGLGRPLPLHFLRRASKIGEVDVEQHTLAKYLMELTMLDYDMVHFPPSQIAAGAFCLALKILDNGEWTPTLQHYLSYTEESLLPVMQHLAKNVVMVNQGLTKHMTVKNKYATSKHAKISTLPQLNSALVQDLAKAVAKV

Substance | cdk1 activity (histone H1 kinase assay) (cyclin B1-cdk1 complex) | kinase activity (histone H1 as a substrate) (cyclin B1-cdk1 complex) | cleavage of the sensor (immunoblot with anti-GFP antibody, FIG. 2D) [1]
myc-tagged mouse separase, wild-type (WT) | cdk1 activity was markedly inhibited in the separase-bound fraction | in the separase-bound fraction, kinase activity is inhibited (separase-bound cyclin B1-cdk1) | –
separase | – | – | The separase sensor localized in chromosome in the cells in anaphase is cleaved
